Five molecules from article PMC7720213, “Structure of eukaryotic DNA polymerase δ bound to the PCNA clamp while encircling DNA” (Proceedings of the National Academy of Sciences of the …, 2020) can be followed below.

The chains are these.
B4: S.c. DNA polymerase δ regulatory subunit Pol31 (natural protein, S. cerevisiae)
chain: MDALLTKFNEDRSLQDENLSQPRTRVRIVDDNLYNKSNPFQLCYKKRDYGSQYYHIYQYRLKTFRERVLKECDKRWDAGFTLNGQLVLKKDKVLDIQGNQPCWCVGSIYCEMKYKPNVLDEVINDTYGAPDLTKSYTDKEGGSDEIMLEDESGRVLLVGDFIRSTPFITGVVVGILGMEAEAGTFQVLDICYPTPLPQNPFPAPIATCPTRGKIALVSGLNLNNTSPDRLLRLEILREFLMGRINNKIDDISLIGRLLICGNSVDFDIKSVNKDELMISLTEFSKFLHNILPSISVDIMPGTNDPSDKSLPQQPFHKSLFDKSLESYFNGSNKEILNLVTNPYEFSYNGVDVLAVSGKNINDICKYVIPSNDNGESENKVEEGESNDFKDDIEHRLDLMECTMKWQNIAPTAPDTLWCYPYTDKDPFVLDKWPHVYIVANQPYFGTRVVEIGGKNIKIISVPEFSSTGMIILLDLETLEAETVKIDI
notes: Pol31 (B subunit), regulatory subunit of Saccharomyces cerevisiae DNA polymerase δ; Stood in the assay as part of the three-subunit Pol δ; also called B subunit

The target of data set [1] is Pol delta exo- (Pol3-Pol31-Pol32);PCNA (Saccharomyces cerevisiae;Saccharomyces …, UniProt P15436;P46957;P47110;P15873 1-1097;1-487;1-350;1-258, D321S;E323S|). Nature of the data set: cryo-EM 3.2 A; ddTTP; 4Fe-4S cluster, Zn2+; EMSA: 50 mM Hepes pH 7.5, 5 mM MgCl2, 50 mM NaOAc, 1 mM DTT, 6% glycerol, 90 min at room temperature; 8% native PAGE in 40 mM Tris, 150 mM glycine pH 8.0. Conditions: protein: recombinant;recombinant; tags: ;; copies: 1;1;1;3; 25 bp, 5' overhang 13 nt on template.

In data set [2] the target is T1, S.c. DNA polymerase δ catalytic subunit Pol3 with the D321S and E323S mutations in the exonuclease active site (S. cerevisiae, UniProt P15436 1-1097, D321S | E323S).
T1 construct: Pol3, catalytic subunit of Saccharomyces cerevisiae DNA polymerase δ; carries a 4Fe-4S cluster (CysB) and a zinc finger (CysA); Stood in the assay as part of the three-subunit Pol δ; also called catalytic subunit of Pol δ^exo-
T1 sequence: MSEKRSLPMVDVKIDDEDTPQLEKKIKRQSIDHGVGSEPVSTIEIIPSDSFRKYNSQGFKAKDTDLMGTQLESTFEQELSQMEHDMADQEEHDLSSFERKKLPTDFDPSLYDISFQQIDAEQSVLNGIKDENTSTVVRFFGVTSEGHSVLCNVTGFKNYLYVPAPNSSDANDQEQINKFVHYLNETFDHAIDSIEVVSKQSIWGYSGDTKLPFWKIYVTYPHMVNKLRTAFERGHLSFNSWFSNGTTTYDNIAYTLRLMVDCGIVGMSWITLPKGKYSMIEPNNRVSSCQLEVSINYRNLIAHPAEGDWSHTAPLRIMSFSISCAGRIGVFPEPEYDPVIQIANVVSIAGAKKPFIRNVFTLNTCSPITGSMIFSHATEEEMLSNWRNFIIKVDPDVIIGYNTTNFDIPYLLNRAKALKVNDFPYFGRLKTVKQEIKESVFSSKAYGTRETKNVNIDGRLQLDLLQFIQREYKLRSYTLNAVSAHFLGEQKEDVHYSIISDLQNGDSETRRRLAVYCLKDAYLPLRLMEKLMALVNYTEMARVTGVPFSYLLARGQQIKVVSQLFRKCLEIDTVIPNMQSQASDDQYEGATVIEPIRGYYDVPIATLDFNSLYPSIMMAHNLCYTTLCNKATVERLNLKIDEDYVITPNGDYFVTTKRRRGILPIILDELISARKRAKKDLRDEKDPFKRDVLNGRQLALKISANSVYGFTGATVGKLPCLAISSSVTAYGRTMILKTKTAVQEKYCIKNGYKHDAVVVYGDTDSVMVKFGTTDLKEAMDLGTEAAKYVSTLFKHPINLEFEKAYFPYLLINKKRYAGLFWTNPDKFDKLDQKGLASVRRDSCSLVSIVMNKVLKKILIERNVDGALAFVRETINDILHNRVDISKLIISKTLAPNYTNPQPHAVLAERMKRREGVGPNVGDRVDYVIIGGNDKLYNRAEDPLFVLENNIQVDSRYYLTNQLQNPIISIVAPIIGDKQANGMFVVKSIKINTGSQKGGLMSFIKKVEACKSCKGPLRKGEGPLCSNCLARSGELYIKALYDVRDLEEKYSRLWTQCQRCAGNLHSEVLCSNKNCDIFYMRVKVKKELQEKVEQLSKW
Nature of the data set: cryo-EM structure; 8.0 uM PCNA and 6.0 uM T/P DNA mixed in Hepes-KOH pH 7.5, DTT, MgAc, KOAc, potassium glutamate, 0.4 mM ddTTP, then 3.3 uM Pol δ added; PCNA:Pol δ:T/P DNA 1.2:1:0.9; on ice 1 h; 3.2 Å map. The following applies: both partners purified.

The target in data set [3] is T2, S.c. DNA polymerase δ (Pol3-Pol31-Pol32) harboring the D321S and E323S mutations in the exonuclease domain of … (S. cerevisiae, UniProt P15436 1-1097; P46957 1-487; P47110 1-350, D321S | E323S).
T2 construct: Pol3, catalytic subunit of Saccharomyces cerevisiae DNA polymerase δ; Pol31 (B subunit), regulatory subunit of Saccharomyces cerevisiae DNA polymerase δ; Pol32, regulatory subunit of Saccharomyces cerevisiae DNA polymerase δ; also called Pol δ^exo-; Pol δ; copies: + +
The data set is described as above. Conditions: both partners purified.

Data set [4] concerns the molecule itself. The data set is described as above.
A further data set concerns the target Pol31-Pol32 complex (Saccharomyces cerevisiae, UniProt P46957;P47110 1-487;1-350). Nature of the data set: EMSA; 5 mM Mg2+; 0-5 uM protein, 0.5 nM DNA; EMSA: 50 mM Hepes pH 7.5, 5 mM MgCl2, 50 mM NaOAc, 1 mM DTT, 6% glycerol, 90 min at room temperature; 8% native PAGE in 40 mM Tris, 150 mM glycine pH 8.0. The following applies: protein: recombinant; tags: GST tag removed with PreScission protease; copies: 1;1; label: 5'-32P; single strand.

The target of data set [5] is B4. The experiment in a line: cryo-EM structure; 8.0 uM PCNA and 6.0 uM T/P DNA mixed in Hepes-KOH pH 7.5, DTT, MgAc, KOAc, potassium glutamate, 0.4 mM ddTTP, then 3.3 uM Pol δ added; PCNA:Pol δ:T/P DNA 1.2:1:0.9; on ice 1 h; 3.2 Å map. The following applies: both partners purified.

B1: T/P DNA (38-nt template / 25-nt primer) (dsDNA)
DNA 1: CTGCACGAATTAAGCAATTCGTAATCATGGTCATAGCT
DNA 2: AGCTATGACCATGATTACGAATTGC
modifications: primer 3'-terminal dideoxy-C
With B1, the binding result in data set [1] is recorded as “binds”.

B2: S.c. proliferating cell nuclear antigen (PCNA) sliding clamp (natural protein, S. cerevisiae)
chain: MLEAKFEEASLFKRIIDGFKDCVQLVNFQCKEDGIIAQAVDDSRVLLVSLEIGVEAFQEYRCDHPVTLGMDLTSLSKILRCGNNTDTLTLIADNTPDSIILLFEDTKKDRIAEYSLKLMDIDADFLKIEELQYDSTLSLPSSEFSKIVRDLSQLSDSINIMITKETIKFVADGDIGSGSVIIKPFVDMEHPETSIKLEMDQPVDLTFGAKYLLDIIKGSSLSDRVGIRLSSEAPALFQFDLKSGFLQFFLAPKFNDEE
notes: PCNA of Saccharomyces cerevisiae, homotrimeric ring; also called PCNA clamp; PCNA trimer; source: purified
With B2, the binding result in data set [2] and in data set [3] was “binds” each time. Besides, in data set [4], the “stoichiometry N” value amounted to 3.

B3: 62-mer ssDNA (ssDNA)
DNA: ATGCTTAGCCTGAGGACTATTCTACTTAACGCGAGTTACGTGACGGTATCTTATCCGGCGC
As for B3, the binding result with Pol31-Pol32 complex was “binds”.
As for B4, the binding result in data set [2] is “binds”.

B5: S.c. DNA polymerase δ regulatory subunit Pol32 (natural protein, S. cerevisiae)
chain: MDQKASYFINEKLFTEVKPVLFTDLIHHLKIGPSMAKKLMFDYYKQTTNAKYNCVVICCYKDQTIKIIHDLSNIPQQDSIIDCFIYAFNPMDSFIPYYDIIDQKDCLTIKNSYELKVSESSKIIERTKTLEEKSKPLVRPTARSKTTPEETTGRKSKSKDMGLRSTALLAKMKKDRDDKETSRQNELRKRKEENLQKINKQNPEREAQMKELNNLFVEDDLDTEEVNGGSKPNSPKETDSNDKDKNNDDLEDLLETTAEDSLMDVPKIQQTKPSETEHSKEPKSEEEPSSFIDEDGYIVTKRPATSTPPRKPSPVVKRALSSSKKQETPSSNKRLKKQGTLESFFKRKAK
notes: Pol32, regulatory subunit of Saccharomyces cerevisiae DNA polymerase δ; Stood in the assay as part of the three-subunit Pol δ
Consider B5, for which the binding result in data set [5] is given as “binds”.
